{"source": "paper PMC12618663", "key": {"[1]": {"molecular_target": "TMexC1 adapter prepared alone, C-terminal 6x His tag (Klebsiella pneumoniae)", "assay": "SEC"}, "[2]": {"molecular_target": "TOprJ1 outer-membrane channel, 6x His-tagged, from the single plasmid pBAD24::tmexCD1-toprJ1 (Klebsiella pneumoniae)", "assay": "cryo-EM structure"}, "[3]": {"molecular_target": "TOprJ1 outer-membrane channel prepared alone, C-terminal 6x His tag (pET28::toprJ1) (Klebsiella pneumoniae)", "assay": "negative-stain electron microscopy"}, "[4]": {"molecular_target": "TOprJ1 outer-membrane channel prepared alone, C-terminal 6x His tag (pET28::toprJ1) (Klebsiella pneumoniae)", "assay": "SEC"}, "[5]": {"molecular_target": "TMexD1 transporter, C-terminal 6x His tag (pET28::tmexD1) (Klebsiella pneumoniae)", "assay": "SEC"}, "[6]": {"molecular_target": "TMexD1 transporter, tag-free, from the single plasmid pBAD24::tmexCD1-toprJ1 (Klebsiella pneumoniae)", "assay": "cryo-EM structure"}, "[7]": {"molecular_target": "TMexC1 adapter, Strep-tagged, from the single plasmid pBAD24::tmexCD1-toprJ1 (Klebsiella pneumoniae)", "assay": "cryo-EM structure"}}, "data": [{"substance": "TMexC1 adapter prepared alone, C-terminal 6x His tag (natural protein)", "values": [{"measurement": "stoichiometry N", "setting": "[1]", "result": 6}]}, {"substance": "TOprJ1 outer-membrane channel, 6x His-tagged, from the single plasmid pBAD24::tmexCD1-toprJ1 (natural protein)", "values": [{"measurement": "stoichiometry N", "setting": "[2]", "result": 3}]}, {"substance": "TOprJ1 outer-membrane channel prepared alone, C-terminal 6x His tag (pET28::toprJ1) (natural protein)", "values": [{"measurement": "stoichiometry N", "setting": "[3]", "result": 3}, {"measurement": "stoichiometry N", "setting": "[4]", "result": 3}]}, {"substance": "TMexD1 transporter, C-terminal 6x His tag (pET28::tmexD1) (natural protein)", "values": [{"measurement": "stoichiometry N", "setting": "[5]", "result": 3}]}, {"substance": "TMexD1 transporter, tag-free, from the single plasmid pBAD24::tmexCD1-toprJ1 (natural protein)", "values": [{"measurement": "stoichiometry N", "setting": "[6]", "result": 3}]}, {"substance": "TMexC1 adapter, Strep-tagged, from the single plasmid pBAD24::tmexCD1-toprJ1 (natural protein)", "values": [{"measurement": "stoichiometry N", "setting": "[7]", "result": 6}]}]}
